According to patent publication US10428140B2, “Anti-EphA4 antibody” (EISAI R&D MANAGEMENT CO., LTD., priority 2015, dated 2019):

Tested on: EphA4 autophosphorylation induced by mouse Ephrin A1
Experiment: In vivo competition assay using mouse newborns (EphA4 autophosphorylation in cerebral hemisphere)
Conditions: 8-day-old mouse, 300 mg/kg subcutaneous
Protocol: The in vivo competition assay using mouse newborns was conducted according to the following steps. PBS (Wako Pure Chemical Industries), antibody A, or a control antibody (mouse anti-dinitrophenol antibody) produced with a conventional procedure by immunizing […] with dinitrophenol was subcutaneously administered at a dose of 300 mg/kg (30 mL/kg) to each 8-day-old mouse (Charles River Laboratories Japan). After 24 hours, the scalp was incised under 4% isoflurane (Intervet) anesthesia, and mouse Ephrin A1-Fc chimera (300 pmol/head, R&D Systems) or PBS (Wako Pure Chemical Industries) was administered into the lateral ventricle. 1 hour thereafter, the mouse was euthanized by decapitation, followed by the extirpation of the cerebral hemisphere. […] 3×SDS sample buffer was added to a portion of the homogenate, which was then boiled for 10 minutes, followed by protein quantification. […] The remaining homogenate was subjected to protein quantification and then dispensed in an amount corresponding to 3 mg of protein, and 1% Triton X-100 (Wako Pure Chemical Industries) and 0.1% SDS (Nacalai Tesque) were added thereto. […] Western blotting using an anti-EphA4 monoclonal antibody (Abnova) was further performed, and band intensity was quantified to calculate a value of phosphorylated EphA4/total EphA4. […]

B1: antibody A: mouse anti-EphA4 monoclonal antibody, IgG1/κ; heavy chain variable region SEQ ID NO: 11, light chain variable region SEQ ID NO: 13 (antibody, listed as Mus musculus, V domains shown)
VH: QIQLVQSGPELKKPGETVKISCKASGYTFTDYSMHWVKQAPGKGLKWMGWINTETGEPTYADDFKGRFAFSLETSASTAYLQINNLKNEDTATYFCARIPLYYYGSRYWYFDVWGAGTTVTVSS
VL: DIQMTQSPASLSVSVGETVTITCRASENIYRNLAWYQQKQGKSPQLLVYAATNLADGVPSRFSGSGSGTQYSLKINSLQSEDFGSYYCQHFWGTPWTFGGGTKLEIK
suppression of mouse EphrinA1-induced EphA4 autophosphorylation: 66%
